In article PMC10541312 (The Journal of Experimental Medicine, 2023):

What was measured:
Experiment in all cases: BLI; biotinylated CD123 ECD wt and variants captured on streptavidin biosensors; IL-3 as analyte, 500 to 7.8 nM in PBS pH7.4; association 300 s; steady-state analysis
Settings in all cases: both partners purified
[1] = molecular target: T1, CD123 R84T ECD (amino acids 19–305), soluble protein (human, UniProt P26951 19-305, R84T, biotinylated (Biotinylation kit Type B) in the IL-3 BLI only)
T1 construct: human CD123 extracellular domain (ECD; amino acids 19–305); source: produced and purified by Icosagen
T1 sequence (looked up): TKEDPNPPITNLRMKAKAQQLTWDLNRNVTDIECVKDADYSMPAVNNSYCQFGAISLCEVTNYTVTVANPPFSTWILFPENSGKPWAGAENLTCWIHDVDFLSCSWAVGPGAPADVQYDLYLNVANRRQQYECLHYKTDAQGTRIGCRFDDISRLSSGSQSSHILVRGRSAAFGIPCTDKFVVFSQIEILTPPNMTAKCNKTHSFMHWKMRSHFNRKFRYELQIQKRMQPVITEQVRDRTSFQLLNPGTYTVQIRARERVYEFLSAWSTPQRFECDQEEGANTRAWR

[2] = molecular target: T2, CD123 E51Q ECD (amino acids 19–305), soluble protein (human, UniProt P26951 19-305, E51Q, biotinylated (Biotinylation kit Type B) in the IL-3 BLI only)
T2 construct: human CD123 extracellular domain (ECD; amino acids 19–305); source: produced and purified by Icosagen
T2 sequence (looked up): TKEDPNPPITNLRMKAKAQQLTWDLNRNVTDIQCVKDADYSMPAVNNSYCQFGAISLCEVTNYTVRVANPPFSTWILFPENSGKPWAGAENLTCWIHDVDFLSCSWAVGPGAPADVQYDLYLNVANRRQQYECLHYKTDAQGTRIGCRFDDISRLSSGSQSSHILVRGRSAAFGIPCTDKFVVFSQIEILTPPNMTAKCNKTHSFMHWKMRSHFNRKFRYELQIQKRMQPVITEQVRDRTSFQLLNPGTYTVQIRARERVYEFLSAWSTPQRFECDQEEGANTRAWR

[3] = molecular target: T3, CD123 S59F ECD (amino acids 19–305), soluble protein (human, UniProt P26951 19-305, S59F, biotinylated (Biotinylation kit Type B) in the IL-3 BLI only)
T3 construct: human CD123 extracellular domain (ECD; amino acids 19–305); source: produced and purified by Icosagen
T3 sequence (looked up): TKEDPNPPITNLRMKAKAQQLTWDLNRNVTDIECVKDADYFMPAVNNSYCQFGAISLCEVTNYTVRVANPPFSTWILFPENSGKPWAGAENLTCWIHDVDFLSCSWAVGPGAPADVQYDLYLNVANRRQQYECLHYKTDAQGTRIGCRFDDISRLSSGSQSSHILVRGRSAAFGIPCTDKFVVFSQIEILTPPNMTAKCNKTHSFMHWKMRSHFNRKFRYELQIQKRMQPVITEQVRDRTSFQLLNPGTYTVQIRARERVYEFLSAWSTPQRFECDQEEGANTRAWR

[4] = molecular target: T4, CD123 E51T ECD (amino acids 19–305), soluble protein (human, UniProt P26951 19-305, E51T, biotinylated (Biotinylation kit Type B) in the IL-3 BLI only)
T4 construct: human CD123 extracellular domain (ECD; amino acids 19–305); source: produced and purified by Icosagen
T4 sequence (looked up): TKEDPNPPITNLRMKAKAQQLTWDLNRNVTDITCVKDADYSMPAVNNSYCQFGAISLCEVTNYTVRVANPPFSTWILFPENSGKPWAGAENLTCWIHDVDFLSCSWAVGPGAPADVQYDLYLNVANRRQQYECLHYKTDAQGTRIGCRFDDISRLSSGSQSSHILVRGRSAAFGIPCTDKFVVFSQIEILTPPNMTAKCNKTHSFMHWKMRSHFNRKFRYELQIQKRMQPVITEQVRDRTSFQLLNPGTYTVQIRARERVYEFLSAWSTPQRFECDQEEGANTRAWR

[5] = molecular target: T5, CD123 S59R ECD (amino acids 19–305), soluble protein (human, UniProt P26951 19-305, S59R, biotinylated (Biotinylation kit Type B) in the IL-3 BLI only)
T5 construct: human CD123 extracellular domain (ECD; amino acids 19–305); source: produced and purified by Icosagen
T5 sequence (looked up): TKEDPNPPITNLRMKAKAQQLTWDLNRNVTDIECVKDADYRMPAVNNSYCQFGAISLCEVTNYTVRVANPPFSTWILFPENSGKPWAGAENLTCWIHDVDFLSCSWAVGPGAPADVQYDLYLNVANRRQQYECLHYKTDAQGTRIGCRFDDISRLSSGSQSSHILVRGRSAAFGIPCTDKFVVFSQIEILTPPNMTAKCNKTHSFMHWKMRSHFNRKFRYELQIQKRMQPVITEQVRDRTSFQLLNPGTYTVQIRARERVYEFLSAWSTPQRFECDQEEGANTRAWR

[6] = molecular target: T6, CD123 S59P ECD (amino acids 19–305), soluble protein (human, UniProt P26951 19-305, S59P, biotinylated (Biotinylation kit Type B) in the IL-3 BLI only)
T6 construct: human CD123 extracellular domain (ECD; amino acids 19–305); source: produced and purified by Icosagen
T6 sequence (looked up): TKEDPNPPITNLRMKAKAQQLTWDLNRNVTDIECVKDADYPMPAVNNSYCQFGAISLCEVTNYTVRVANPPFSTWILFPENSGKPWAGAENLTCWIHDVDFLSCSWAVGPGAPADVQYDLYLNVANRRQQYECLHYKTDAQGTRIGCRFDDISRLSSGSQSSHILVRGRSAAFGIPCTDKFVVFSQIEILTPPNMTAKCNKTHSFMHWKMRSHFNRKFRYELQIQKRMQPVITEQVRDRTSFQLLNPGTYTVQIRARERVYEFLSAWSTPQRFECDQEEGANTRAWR

[7] = molecular target: T7, CD123 wt ECD (amino acids 19–305), soluble protein (human, UniProt P26951 19-305, biotinylated (Biotinylation kit Type B) in the IL-3 BLI only)
T7 construct: human CD123 extracellular domain (ECD; amino acids 19–305); also called wt CD123; source: produced and purified by Icosagen
T7 sequence (looked up): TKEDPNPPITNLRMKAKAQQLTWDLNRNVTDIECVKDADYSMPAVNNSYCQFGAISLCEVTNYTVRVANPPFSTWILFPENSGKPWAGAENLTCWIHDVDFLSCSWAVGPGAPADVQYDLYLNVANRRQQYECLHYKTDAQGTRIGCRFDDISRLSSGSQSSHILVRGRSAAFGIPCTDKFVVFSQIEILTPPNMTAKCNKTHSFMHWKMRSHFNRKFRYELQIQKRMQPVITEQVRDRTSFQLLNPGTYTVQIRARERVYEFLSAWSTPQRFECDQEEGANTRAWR

[8] = molecular target: T8, CD123 S59Y ECD (amino acids 19–305), soluble protein (human, UniProt P26951 19-305, S59Y, biotinylated (Biotinylation kit Type B) in the IL-3 BLI only)
T8 construct: human CD123 extracellular domain (ECD; amino acids 19–305); source: produced and purified by Icosagen
T8 sequence (looked up): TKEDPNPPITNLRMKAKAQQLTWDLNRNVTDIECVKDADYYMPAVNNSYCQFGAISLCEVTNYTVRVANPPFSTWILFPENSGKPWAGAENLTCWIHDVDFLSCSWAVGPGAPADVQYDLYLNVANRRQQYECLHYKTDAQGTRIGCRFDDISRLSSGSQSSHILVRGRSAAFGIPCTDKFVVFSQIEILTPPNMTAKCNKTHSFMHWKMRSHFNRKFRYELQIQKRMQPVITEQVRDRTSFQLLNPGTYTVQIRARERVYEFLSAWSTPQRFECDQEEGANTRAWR

[9] = molecular target: T9, CD123 E51A ECD (amino acids 19–305), soluble protein (human, UniProt P26951 19-305, E51A, biotinylated (Biotinylation kit Type B) in the IL-3 BLI only)
T9 construct: human CD123 extracellular domain (ECD; amino acids 19–305); source: produced and purified by Icosagen
T9 sequence (looked up): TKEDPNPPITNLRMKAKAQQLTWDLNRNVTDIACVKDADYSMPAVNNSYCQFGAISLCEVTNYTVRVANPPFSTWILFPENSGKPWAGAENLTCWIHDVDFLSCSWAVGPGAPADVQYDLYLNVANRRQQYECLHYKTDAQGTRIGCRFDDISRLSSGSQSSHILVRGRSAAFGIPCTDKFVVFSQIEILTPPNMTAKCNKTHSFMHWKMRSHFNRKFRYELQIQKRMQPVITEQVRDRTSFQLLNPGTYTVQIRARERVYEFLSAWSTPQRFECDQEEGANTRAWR

[10] = molecular target: T10, CD123 S59E ECD (amino acids 19–305), soluble protein (human, UniProt P26951 19-305, S59E, biotinylated (Biotinylation kit Type B) in the IL-3 BLI only)
T10 construct: human CD123 extracellular domain (ECD; amino acids 19–305); source: produced and purified by Icosagen
T10 sequence (looked up): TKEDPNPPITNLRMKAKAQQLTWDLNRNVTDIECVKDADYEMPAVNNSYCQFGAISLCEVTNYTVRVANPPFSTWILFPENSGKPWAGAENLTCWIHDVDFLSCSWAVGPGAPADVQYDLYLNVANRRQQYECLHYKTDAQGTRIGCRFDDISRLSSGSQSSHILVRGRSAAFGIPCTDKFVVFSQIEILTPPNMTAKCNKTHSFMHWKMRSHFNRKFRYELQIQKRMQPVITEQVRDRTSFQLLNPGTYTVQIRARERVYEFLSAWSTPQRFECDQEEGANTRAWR

[11] = molecular target: T11, CD123 E51K ECD (amino acids 19–305), soluble protein (human, UniProt P26951 19-305, E51K, biotinylated (Biotinylation kit Type B) in the IL-3 BLI only)
T11 construct: human CD123 extracellular domain (ECD; amino acids 19–305); source: produced and purified by Icosagen
T11 sequence (looked up): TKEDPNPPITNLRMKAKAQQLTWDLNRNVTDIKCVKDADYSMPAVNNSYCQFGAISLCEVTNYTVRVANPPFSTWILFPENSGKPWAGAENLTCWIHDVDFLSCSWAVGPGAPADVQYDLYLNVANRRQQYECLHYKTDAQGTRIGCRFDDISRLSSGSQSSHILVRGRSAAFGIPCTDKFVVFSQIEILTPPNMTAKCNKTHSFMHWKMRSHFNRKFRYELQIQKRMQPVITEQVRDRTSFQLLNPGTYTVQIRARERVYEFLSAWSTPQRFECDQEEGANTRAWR

[12] = molecular target: T12, CD123 R84E ECD (amino acids 19–305), soluble protein (human, UniProt P26951 19-305, R84E, biotinylated (Biotinylation kit Type B) in the IL-3 BLI only)
T12 construct: human CD123 extracellular domain (ECD; amino acids 19–305); source: produced and purified by Icosagen
T12 sequence (looked up): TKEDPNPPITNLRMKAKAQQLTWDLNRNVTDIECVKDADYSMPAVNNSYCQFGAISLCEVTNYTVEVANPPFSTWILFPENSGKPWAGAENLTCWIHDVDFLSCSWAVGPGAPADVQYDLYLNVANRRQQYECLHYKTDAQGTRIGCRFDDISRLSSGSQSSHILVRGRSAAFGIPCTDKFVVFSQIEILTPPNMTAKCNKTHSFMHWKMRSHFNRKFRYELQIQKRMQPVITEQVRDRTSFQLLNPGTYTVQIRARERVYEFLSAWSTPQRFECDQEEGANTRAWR

[13] = molecular target: T13, CD123 R84Q ECD (amino acids 19–305), soluble protein (human, UniProt P26951 19-305, R84Q, biotinylated (Biotinylation kit Type B) in the IL-3 BLI only)
T13 construct: human CD123 extracellular domain (ECD; amino acids 19–305); source: produced and purified by Icosagen
T13 sequence (looked up): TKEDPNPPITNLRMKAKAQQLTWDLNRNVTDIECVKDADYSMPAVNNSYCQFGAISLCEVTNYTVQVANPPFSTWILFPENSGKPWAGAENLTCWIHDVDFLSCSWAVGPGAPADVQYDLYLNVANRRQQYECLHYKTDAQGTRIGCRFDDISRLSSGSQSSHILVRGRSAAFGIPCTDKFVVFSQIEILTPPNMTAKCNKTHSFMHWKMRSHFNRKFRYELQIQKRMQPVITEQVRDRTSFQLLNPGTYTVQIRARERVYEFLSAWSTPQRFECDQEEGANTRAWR

Measured: binding result

B1: IL-3 (ligand, human, UniProt P08700 20-152, looked up)
chain: APMTQTTPLKTSWVNCSNMIDEIITHLKQPPLPLLDFNNLNGEDQDILMENNLRRPNLEAFNRAVKSLQNASAIESILKNLLPCLPLATAAPTRHPIHIKDGDWNEFRRKLTFYLKTLENAQAQQTTLSLAIF
notes: human interleukin-3, recombinant, Sino Biological PN 11858-H08H; also called interleukin-3; human IL-3; source: bought: Sino Biological (PN 11858-H08H)
binds: [1] | [2] | [3] | [4] | [5] | [6] | [7] | [8] | [9] | [10] | [11] | [12] | [13]
